Biological target: CFP/B-Lc (BoNT/B protease fused to CFP) (Clostridium botulinum, BoNT type B; …, UniProt P10844)
Experiment: pull-down

B1: YFP/B10 (VHH BLc-B10 fused to an amino terminal streptavidin binding peptide and YFP) (VHH)
VHH: QLQLVESGGGMVQPGGSLRLSCAASGFTFSTYDMSWVRQAPGKGPEWVSIINAGGGSTYYAASVKGRFAISRDNAKNTLYLQMNNLKPEDTALYYCARVASYYCRGYVCSPPEFDYWGQGTQVTVSS
binding result: binds
